From paper PMC9372435, “Peptide Centric Vβ Specific Germline Contacts Shape a Specialist T Cell Response” (Frontiers in Immunology, 2022) come the findings set out here.

The first assay has as its target TG6 TCR, acid-base leucine zipper stabilized, soluble, biotinylated (mouse). As to the kind of experiment: SPR.
Conditions: not given
As to “soluble L^d-HF10 (HF10 fused via a linker to β2m, disulfide-trapped), wild-type peptide (peptide-MHC)”, the dissociation constant Kd was determined as 0.42 µM. “soluble L^d-HF10 (L^d α1-α3 with HF10 fused via a linker to β2m, disulfide-trapped) (peptide-MHC)” yielded a dissociation constant Kd of 0.4 µM.

Substance “soluble L^d-HF10 with alanine at peptide position 1 (peptide-MHC)” displayed a Kd of 1.02 µM. For “soluble L^d-HF10 with alanine at peptide position 2 (peptide-MHC)”, the equilibrium dissociation constant (Kd) worked out at 1.84 µM. On to “soluble L^d-HF10 with alanine at peptide position 4 (peptide-MHC)”, for which the dissociation constant Kd stood at 2.4 µM. “soluble L^d-HF10 with alanine at peptide position 5 (peptide-MHC)” had a Kd of 1.85 µM. “soluble L^d-HF10 with alanine at peptide position 9 (peptide-MHC)” had a Kd of 170 µM.

The next assay relates to TG6 TCR. As to the kind of experiment: Surface plasmon resonance of L^d-HF10 (WT and alanine variants) binding to immobilised TG6 TCR. Set-up: species or system mouse. The following applies: SPR, BIAcore SA chip, ~2000 RU biotinylated TG6 TCR; soluble L^d-peptide injected; two-state reaction fit. The source says:
We used two systems to generate L^d-HF10. For biophysical and crystallographic studies of pMHC, we produced soluble L^d-HF10 by baculovirus-infected insect cell expression ([26]). The DNA encoding L^d (α1-α3) and HF10 (or alanine substituted variants) fused via a linker to β2m were cloned into pbac plasmid under polyhedrin and p10 promoters to produce secreted soluble Ld-HF10 from Hi5 insect cells. In this construct, L^d Tyr 84 and Gly at peptide p12 position from the linker that attaches β2m to pHF10 were mutated to cysteines to form a disulfide bond ([27]). Secreted L^d-HF10 in insect cell medium was captured with immunoaffinity chromatography and further purified by GE Healthcare FPLC Superdex 200 10/300 GL size exclusion column. For the crystallography of the TCR/peptide/MHC ternary complex, we produced the wild type L^d variable region (α1-α2). L^d (α1-α2) was expressed in E. coli BL21 as an inclusion body, solubilized in 8M urea, and refolded with synthetic HF10 peptide (HPGSVNEFDF, ordered from Peptide 2.0 Inc.) ([28], [29]). Refolded L^d-HF10 was further purified with a HiLoad Superdex 200 26/600 size chromatography column.
TG6 α and β TCR chains were also produced by both baculovirus insect cell and bacterial expression systems. […]
Approximately 2000 RU of biotinylated TG6 TCR was captured in the flow cells of a BIAcore streptavidin (SA) BIAsensor chip. Various concentrations of insect cell-produced L^d-HF10 and its mutated variant peptides were injected into the sensor chip and the association and dissociation kinetics were recorded and then corrected for the fluid phase SPR signal using the data from the biotinylated mouse BDC2.5 TCR. Kinetics was analyzed with BIAcore BIAEval 4 software. […]
(A) Corrected surface plasmon resonance (SPR) data for the binding of various concentrations of soluble L^d-HF10 to ~2000 RU of biotinylated TG6 TCR immobilized in flow cell on SA sensor chip. […] Upregulation of surface CD25 and CD44 in response to TCR stimulation was measured by flow cytometry. […]
“HPGSVNEFDF [HF10, 10mer peptide from the C-terminus of T. gondii protein GRA6, presented by MHC-I L^d]” yielded a ka2 of 0.002 s⁻¹, a kd1 of 0.014 s⁻¹ and a kd2 of 0.005 s⁻¹.

The next assay concerns tetramer+ CD8 T cells. As to the kind of experiment: Immunization with peptide-loaded dendritic cells, expansion of tetramer+ CD8 T cells. Type of assay: in vivo. The following applies: F1 (H2^bxd) mice, 5x10^6 dendritic cells loaded with 1μM peptide s.c., spleen 7 days post immunization, versus numbers in naive mice. As for the experimental part:
Bone marrow-derived dendritic cells from male mice were incubated with 1μM of peptide for 3 hours at 37°C. Cells were washed and 5x10^6 peptide-loaded dendritic cells were injected subcutaneously into naive F1 (H2^bxd) female mice. Mice were sacrificed 7 days post immunization. Peptide sequences: HF10: HPGSVNEFDF; ROP5: YAVANYFFL; GRA4: SPMNGGYYM.
Figure 1 Characteristics of the L^d-HF10 specific T cell response. (A) T. gondii-specific CD8 T cells were quantified by pMHC tetramer staining and flow cytometry of splenocytes at different time points after intraperitoneal infection of F1 (B6xB6.C) mice. Fold change between naive and expanded T cells was calculated using the average number of tetramer+ cells in each population in naive mice (GRA6 = 74.4, ROP5: 654.9, GRA4: 1330). (B) Flow cytometric analysis of size (FSC or forward scatter) or expression of activation and effector markers (CD71, KLRG1, and CD25) on gated tetramer^+ splenic CD8 T cells at day 5 post infection. (C) Mice were immunized with bone marrow-derived dendritic cells loaded with the indicated peptides. Expanded tetramer^+ CD8 T cells were quantified by tetramer staining of splenocytes 7 days post immunization (open circles). Numbers of tetramer^+ CD8 T cells in the spleen were quantified by tetramer enrichment of naïve mice and were used to calculate the fold expansion of each antigen-specific T cell population (closed circles). Statistical significance of differences in fold change between the three groups was calculated using Mann-Whitney tests. GRA6 vs. GRA4: p < 0.0001, GRA6 vs. ROP5: p < 0.0001, GRA4 vs. ROP5: p=0.0002. Statistical significance between tetramer+ T cell populations was calculated by two-way ANOVA. The interaction p-values are as follows: GRA6 vs. GRA4: p < 0.0001, GRA6 vs. ROP5: p < 0.0001, GRA4 vs. ROP5: p=0.99. (D) The frequency of Vβ2 usage amongst L^d-HF10 specific splenic CD8 T cells tetramer enriched from naïve mice or found in T. gondii-infected mice was determined by flow cytometry. […] Clonal diversity in L^d-HF10 specific CD8 T cells was analyzed using the TCRdist algorithm ([40]). […]
On to “HPGSVNEFDF [HF10, 10mer peptide from the C-terminus of T. gondii protein GRA6, presented by MHC-I L^d]”, for which the “Fold expansion of tetramer+ CD8 T cells” value was 4000 x. Consider SPMNGGYYM [GRA4], for which the “Fold expansion of tetramer+ CD8 T cells” value was found to be 50 x. On the same count and under the same terms, then YAVANYFFL [ROP5], with 300 x.

The target in the next assay is H2-L^d on TAP-deficient RMA-S.L^d cells. In words: flow cytometry on cells (RMA-S.Ld surface Ld stabilisation). The following applies: read at the highest peptide concentration, log [peptide in µM] = 0; parent: est. 670; read off a plot.
Regarding HF10 peptide p1A, the response stood at 550 MFI.

As for HF10 peptide p2A, the response worked out at 100 MFI. For HF10 peptide p3A, the response was 690 MFI. HF10 peptide p4A: the response came out at 720 MFI.

Regarding HF10 peptide p5A, the response amounted to 400 MFI. For HF10 peptide p6A, the response turned out to be 440 MFI.

Turning to HF10 peptide p7A, the response is 670 MFI. Regarding HF10 peptide p8A, the response worked out at 120 MFI. With HF10 peptide p9A, the response is 430 MFI. With HF10 peptide p10A, the response worked out at 60 MFI.
